Source: publication PMC11328874 (2024)

Target: T1, FLAG-Eya3 (human), wild type, Q99504
T1 chain: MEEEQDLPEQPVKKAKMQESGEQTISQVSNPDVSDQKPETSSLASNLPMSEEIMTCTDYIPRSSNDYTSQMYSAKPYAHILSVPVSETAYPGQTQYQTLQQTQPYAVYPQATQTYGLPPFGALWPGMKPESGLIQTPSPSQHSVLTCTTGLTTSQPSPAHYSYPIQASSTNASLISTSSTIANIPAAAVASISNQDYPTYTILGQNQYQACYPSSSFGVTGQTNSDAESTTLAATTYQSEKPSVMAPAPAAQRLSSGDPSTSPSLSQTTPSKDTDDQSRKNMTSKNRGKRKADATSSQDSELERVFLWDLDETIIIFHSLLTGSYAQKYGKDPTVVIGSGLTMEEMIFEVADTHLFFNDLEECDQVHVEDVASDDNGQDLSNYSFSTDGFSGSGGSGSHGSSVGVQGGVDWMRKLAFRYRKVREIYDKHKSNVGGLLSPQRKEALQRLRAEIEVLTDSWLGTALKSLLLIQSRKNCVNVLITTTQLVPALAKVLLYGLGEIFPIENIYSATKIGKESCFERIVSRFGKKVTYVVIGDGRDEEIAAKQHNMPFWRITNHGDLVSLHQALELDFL
Test: FLAG co-IP followed by Western blot, band quantification
Details: chain shown with the change; cotransfected HEK cells; three biological replicates; parent: est. 1.0; read off a plot

B1: HA-tagged B55α (HA-B55α), wild type, P63151 F84-L90/GG (protein)
chain: MAGAGGGNDIQWCFSQVKGAVDDDVAEADIISTVEFNHSGELLATGDKGGRVVIFQQEQENKIQSHSRGEYNVYSTFQSHEPEGGEIEEKINKIRWLPQKNAAQFLLSTNDKTIKLWKISERDKRPEGYNLKEEDGRYRDPTTVTTLRVPVFRPMDLMVEASPRRIFANAHTYHINSISINSDYETYLSADDLRINLWHLEITDRSFNIVDIKPANMEELTEVITAAEFHPNSCNTFVYSSSKGTIRLCDMRASALCDRHSKLFEEPEDPSNRSFFSEIISSISDVKFSHSGRYMMTRDYLSVKIWDLNMENRPVETYQVHEYLRSKLCSLYENDCIFDKFECCWNGSDSVVMTGSYNNFFRMFDRNTKRDITLEASRENNKPRTVLKPRKVCASGKRKKDEISVDSLDFNKKILHTAWHPKENIIAVATTNNLYIFQDKVN
- ratio to parent: 0.58
